# From paper PMC7395460, “Structural mechanism of helicase loading onto replication origin DNA by ORC-Cdc6” (Proceedings of the National Academy of Sciences of the …, 2020)
# T1: Mcm4 (S. cerevisiae, UniProt P30665 1-933)
# T1 construct: Mcm4 of S. cerevisiae; Stood in the assay as a subunit of the mutant Mcm2-7
# T1 sequence: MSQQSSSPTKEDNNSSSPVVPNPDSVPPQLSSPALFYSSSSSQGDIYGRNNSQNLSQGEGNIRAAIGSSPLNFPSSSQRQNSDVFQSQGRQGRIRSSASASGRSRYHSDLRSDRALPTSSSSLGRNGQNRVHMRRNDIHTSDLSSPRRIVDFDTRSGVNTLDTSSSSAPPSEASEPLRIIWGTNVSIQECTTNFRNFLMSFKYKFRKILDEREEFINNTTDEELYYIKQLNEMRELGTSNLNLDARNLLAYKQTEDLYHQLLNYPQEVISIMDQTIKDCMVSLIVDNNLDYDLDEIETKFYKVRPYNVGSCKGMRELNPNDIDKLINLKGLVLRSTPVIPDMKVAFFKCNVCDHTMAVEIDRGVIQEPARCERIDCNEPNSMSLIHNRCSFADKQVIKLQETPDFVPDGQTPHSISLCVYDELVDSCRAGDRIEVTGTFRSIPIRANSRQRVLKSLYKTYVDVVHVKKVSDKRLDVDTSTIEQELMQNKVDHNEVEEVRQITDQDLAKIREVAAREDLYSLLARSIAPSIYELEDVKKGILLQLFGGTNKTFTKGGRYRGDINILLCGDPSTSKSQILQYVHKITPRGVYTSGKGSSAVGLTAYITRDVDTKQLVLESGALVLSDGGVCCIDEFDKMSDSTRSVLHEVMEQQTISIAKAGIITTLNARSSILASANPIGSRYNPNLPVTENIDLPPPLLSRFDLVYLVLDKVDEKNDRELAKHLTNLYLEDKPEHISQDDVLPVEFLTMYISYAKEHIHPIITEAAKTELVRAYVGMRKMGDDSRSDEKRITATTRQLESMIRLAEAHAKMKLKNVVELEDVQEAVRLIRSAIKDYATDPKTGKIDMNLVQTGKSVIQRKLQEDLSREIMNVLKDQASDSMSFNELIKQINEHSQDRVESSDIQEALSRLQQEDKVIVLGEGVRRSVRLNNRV
# B1: Orc1 (natural protein, S. cerevisiae)
# chain: MAKTLKDLQGWEIITTDEQGNIIDGGQKRLRRRGAKTEHYLKRSSDGIKLGRGDSVVMHNEAAGTYSVYMIQELRLNTLNNVVELWALTYLRWFEVNPLAHYRQFNPDANILNRPLNYYNKLFSETANKNELYLTAELAELQLFNFIRVANVMDGSKWEVLKGNVDPERDFTVRYICEPTGEKFVDINIEDVKAYIKKVEPREAQEYLKDLTLPSKKKEIKRGPQKKDKATQTAQISDAETRATDITDNEDGNEDESSDYESPSDIDVSEDMDSGEISADELEEEEDEEEDEDEEEKEARHTNSPRKRGRKIKLGKDDIDASVQPPPKKRGRKPKDPSKPRQMLLISSCRANNTPVIRKFTKKNVARAKKKYTPFSKRFKSIAAIPDLTSLPEFYGNSSELMASRFENKLKTTQKHQIVETIFSKVKKQLNSSYVKEEILKSANFQDYLPARENEFASIYLSAYSAIESDSATTIYVAGTPGVGKTLTVREVVKELLSSSAQREIPDFLYVEINGLKMVKPTDCYETLWNKVSGERLTWAASMESLEFYFKRVPKNKKKTIVVLLDELDAMVTKSQDIMYNFFNWTTYENAKLIVIAVANTMDLPERQLGNKITSRIGFTRIMFTGYTHEELKNIIDLRLKGLNDSFFYVDTKTGNAILIDAAGNDTTVKQTLPEDVRKVRLRMSADAIEIASRKVASVSGDARRALKVCKRAAEIAEKHYMAKHGYGYDGKTVIEDENEEQIYDDEDKDLIESNKAKDDNDDDDDNDGVQTVHITHVMKALNETLNSHVITFMTRLSFTAKLFIYALLNLMKKNGSQEQELGDIVDEIKLLIEVNGSNKFVMEIAKTLFQQGSDNISEQLRIISWDFVLNQLLDAGILFKQTMKNDRICCVKLNISVEEAKRAMNEDETLRNL
# notes: Orc1, subunit of the S. cerevisiae origin recognition complex; Stood in the assay as a subunit of ORC
# Assays:
# Test in all cases: cryo-EM structure; pre-insertion OCCM, 8.1 Å; same loading reaction (purified ORC, Cdc6, Cdt1, mutant Mcm2-7, ARS1 DNA, ATPγS); models docked as rigid bodies
# Conditions in all cases: both partners purified
# Mcm3 = molecular target: T2, Mcm3 (S. cerevisiae, UniProt P24279 1-971)
# T2 construct: Mcm3 of S. cerevisiae; Stood in the assay as a subunit of the mutant Mcm2-7; in the semi-attached OCCM only its WHD is resolved
# Orc1 = molecular target: B1
# Mcm4 = molecular target: T1, Mcm4
# T2 sequence (P24279 whole entry): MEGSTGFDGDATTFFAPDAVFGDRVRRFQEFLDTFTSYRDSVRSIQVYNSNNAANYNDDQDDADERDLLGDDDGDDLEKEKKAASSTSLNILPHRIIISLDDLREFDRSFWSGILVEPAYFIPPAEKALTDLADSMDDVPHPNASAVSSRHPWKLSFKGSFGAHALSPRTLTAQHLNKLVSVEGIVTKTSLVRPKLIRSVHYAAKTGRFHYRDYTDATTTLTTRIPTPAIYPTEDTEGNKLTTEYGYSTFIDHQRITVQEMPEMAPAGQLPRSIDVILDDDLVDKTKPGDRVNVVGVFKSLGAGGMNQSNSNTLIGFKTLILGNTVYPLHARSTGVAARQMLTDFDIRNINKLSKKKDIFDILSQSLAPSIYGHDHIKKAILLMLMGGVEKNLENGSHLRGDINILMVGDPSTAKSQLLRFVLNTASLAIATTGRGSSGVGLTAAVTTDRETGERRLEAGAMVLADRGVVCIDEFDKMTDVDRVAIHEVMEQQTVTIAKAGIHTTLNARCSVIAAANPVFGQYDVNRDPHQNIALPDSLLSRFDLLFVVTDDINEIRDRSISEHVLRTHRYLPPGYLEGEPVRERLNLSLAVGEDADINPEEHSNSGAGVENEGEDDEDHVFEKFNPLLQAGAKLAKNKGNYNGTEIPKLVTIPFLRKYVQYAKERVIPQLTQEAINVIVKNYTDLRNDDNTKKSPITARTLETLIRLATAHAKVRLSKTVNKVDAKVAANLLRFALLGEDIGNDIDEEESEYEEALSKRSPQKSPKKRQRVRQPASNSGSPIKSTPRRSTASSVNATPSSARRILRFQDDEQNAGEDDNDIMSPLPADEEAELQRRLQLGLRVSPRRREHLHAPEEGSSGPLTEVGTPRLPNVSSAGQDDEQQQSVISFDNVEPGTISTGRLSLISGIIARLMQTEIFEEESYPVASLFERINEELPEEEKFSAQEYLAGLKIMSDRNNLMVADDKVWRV
binder,measurement,setting,value
"Orc2 (natural protein, S. cerevisiae, Orc2, subunit of the S. cerevisiae origin recognition complex; Stood in the assay as a subunit of ORC) MLNGEDFVEHNDILSSPAKSRNVTPKRVDPHGERQLRRIHSSKKNLLERISLVGNERKNTSPDPALKPKTPSKAPRKRGRPRKIQEELTDRIKKDEKDTISSKKKRKLDKDTSGNVNEESKTSNNKQVMEKTGIKEKREREKIQVATTTYEDNVTPQTDDNFVSNSPEPPEPATPSKKSLTTNHDFTSPLKQIIMNNLKEYKDSTSPGKLTLSRNFTPTPVPKNKKLYQTSETKSASSFLDTFEGYFDQRKIVRTNAKSRHTMSMAPDVTREEFSLVSNFFNENFQKRPRQKLFEIQKKMFPQYWFELTQGFSLLFYGVGSKRNFLEEFAIDYLSPKIAYSQLAYENELQQNKPVNSIPCLILNGYNPSCNYRDVFKEITDLLVPAELTRSETKYWGNHVILQIQKMIDFYKNQPLDIKLILVVHNLDGPSIRKNTFQTMLSFLSVIRQIAIVASTDHIYAPLLWDNMKAQNYNFVFHDISNFEPSTVESTFQDVMKMGKSDTSSGAEGAKYVLQSLTVNSKKMYKLLIETQMQNMGNLSANTGPKRGTQRTGVELKLFNHLCAADFIASNEIALRSMLREFIEHKMANITKNNSGMEIIWVPYTYAELEKLLKTVLNTL",binding result,Mcm3,binds
"Mcm7 (natural protein, S. cerevisiae, UniProt P38132 1-845, looked up, Mcm7 of S. cerevisiae; Stood in the assay as a subunit of the mutant Mcm2-7; in the semi-attached OCCM only its WHD is resolved) MSAALPSIQLPVDYNNLFNEITDFLVTFKQDTLSSDATRNENEDENLDAENIEQHLLEKGPKYMAMLQKVANRELNSVIIDLDDILQYQNEKFLQGTQADDLVSAIQQNANHFTELFCRAIDNNMPLPTKEIDYKDDVLDVILNQRRLRNERMLSDRTNEIRSENLMDTTMDPPSSMNDALREVVEDETELFPPNLTRRYFLYFKPLSQNCARRYRKKAISSKPLSVRQIKGDFLGQLITVRGIITRVSDVKPAVEVIAYTCDQCGYEVFQEVNSRTFTPLSECTSEECSQNQTKGQLFMSTRASKFSAFQECKIQELSQQVPVGHIPRSLNIHVNGTLVRSLSPGDIVDVTGIFLPAPYTGFKALKAGLLTETYLEAQFVRQHKKKFASFSLTSDVEERVMELITSGDVYNRLAKSIAPEIYGNLDVKKALLLLLVGGVDKRVGDGMKIRGDINVCLMGDPGVAKSQLLKAICKISPRGVYTTGKGSSGVGLTAAVMKDPVTDEMILEGGALVLADNGICCIDEFDKMDESDRTAIHEVMEQQTISISKAGINTTLNARTSILAAANPLYGRYNPRLSPLDNINLPAALLSRFDILFLMLDIPSRDDDEKLAEHVTYVHMHNKQPDLDFTPVEPSKMREYIAYAKTKRPVMSEAVNDYVVQAYIRLRQDSKREMDSKFSFGQATPRTLLGIIRLSQALAKLRLADMVDIDDVEEALRLVRVSKESLYQETNKSKEDESPTTKIFTIIKKMLQETGKNTLSYENIVKTVRLRGFTMLQLSNCIQEYSYLNVWHLINEGNTLKFVDDGTMDTDQEDSLVSTPKLAPQTTASANVSAQDSDIDLQDA",binding result,Orc1,binds
B1,binding result,Mcm4,binds
